We go through 67 sequences from the supplement of paper PMC10724198.

For this data set, the system named is Saccharomyces cerevisiae. In words: protein stability index of tFT-peptide fusion (C-terminal peptide) (PSI (0-1 scale)); higher = more stable (slower turnover). To be noted: temperature: 30 C. The method, then: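 MPS profiling in S. cerevisiae of the yeast C-terminome library: the last 12 aa of each annotated ORF are fused to the C-terminus of a sfGFP-mCherry timer, after a GGGS linker. Cells are FACS-sorted into 8 mCherry/sfGFP bins and deep-sequenced. PSI runs from 0 (unstable) to 1 (stable); wild type and das1Δ backgrounds, two technical replicates each.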

[1] abbreviates: genetic background: das1 deletion.

± gives the standard deviation of the averaged measurements.

For the sequence GWLQDSNFTKYL [FUN19 C-terminal 12 aa], the protein stability index stood at 0.6978 ± 0.0056 under setting [1] and 0.808 ± 0.13 (genetic background: wild type).

As for GWQTGALIIKKH [SAF1 C-terminal 12 aa], the protein stability index is, setting by setting: under setting [1], 0.729 ± 0.0083; (genetic background: wild type) 0.763 ± 0.11.

Consider GYDTVASLDFWG [ROM2 C-terminal 12 aa], for which the protein stability index amounted to 0.742 ± 0.018 under setting [1] and 0.761 ± 0.047 (genetic background: wild type).

As to GYEDGTIKLNKI [ASA1 C-terminal 12 aa], the protein stability index is, setting by setting: under setting [1], 0.697 ± 0.033; (genetic background: wild type) 0.682 ± 0.018.

For the sequence HAEFHARNLGLI [YJL068C C-terminal 12 aa], the protein stability index under setting [1] is 0.7036 ± 0.0021 and the protein stability index (genetic background: wild type) came out at 0.686 ± 0.023.

As to HGGNISSSTYQA [GND2 C-terminal 12 aa], the protein stability index by setting is: under setting [1], 0.698 ± 0.02; (genetic background: wild type) 0.722 ± 0.054.

As for HHVESVCIMKRI [TRM2 C-terminal 12 aa], the protein stability index under setting [1] is 0.668 ± 0.014 and the protein stability index (genetic background: wild type) turned out to be 0.675 ± 0.034.

Consider HPCTSLTSVIVV [YGL072C C-terminal 12 aa], for which the protein stability index is, setting by setting: under setting [1], 0.36 ± 0.045; (genetic background: wild type) 0.433 ± 0.051.

With HSRNPKRSSTTL [TRK1 C-terminal 12 aa], the protein stability index by setting is: under setting [1], 0.737 ± 0.034; (genetic background: wild type) 0.767 ± 0.069.

Regarding HTPSLKTWSTIK [FKS1 C-terminal 12 aa], the protein stability index under setting [1] came to 0.7108 ± 0.0063 and the protein stability index (genetic background: wild type) came out at 0.711 ± 0.019.

Take HVDKRTKIDQEA [ISW2 C-terminal 12 aa]: the protein stability index was 0.702 ± 0.056 under setting [1] and 0.681 ± 0.016 (genetic background: wild type).

As for HWQYMKDYLNLY [SLI1 C-terminal 12 aa], the protein stability index reads like this: under setting [1], 0.715 ± 0.033; (genetic background: wild type) 0.684 ± 0.06.

For IAEGKSLGIIGA [HXK1 C-terminal 12 aa], the protein stability index was found to be 0.6923 ± 0.0061 under setting [1] and 0.686 ± 0.034 (genetic background: wild type).

For “IAPSGKYYFPFG [YMR031W-A C-terminal 12 aa]”, the protein stability index is, setting by setting: under setting [1], 0.718 ± 0.011; (genetic background: wild type) 0.684 ± 0.011.

For the sequence IARSRRAFLSKL [MRP7 C-terminal 12 aa], the protein stability index runs as follows: under setting [1], 0.843 ± 0.018; (genetic background: wild type) 0.846 ± 0.089.

In the case of IDASKDQDTMME [NUG1 C-terminal 12 aa], the protein stability index runs as follows: under setting [1], 0.693 ± 0.019; (genetic background: wild type) 0.736 ± 0.068.

Consider IDEFYECLQDQQ [DCN1 C-terminal 12 aa], for which the protein stability index amounted to 0.704 ± 0.0073 under setting [1] and 0.721 ± 0.013 (genetic background: wild type).

As for “IDKFLNSAVLSA [YMR307C-A C-terminal 12 aa]”, the protein stability index was found to be 0.5813 ± 0.0033 under setting [1] and 0.637 ± 0.017 (genetic background: wild type).

Consider IDKLRNSFYKTI [SMU2 C-terminal 12 aa], for which the protein stability index by setting is: under setting [1], 0.687 ± 0.028; (genetic background: wild type) 0.515 ± 0.028.

IDSNNAQSKIFS [MYO1 C-terminal 12 aa]: the protein stability index reads like this: under setting [1], 0.6956 ± 0.00034; (genetic background: wild type) 0.6648 ± 0.0055.

In the case of IDVELEEESFTW [FRE1 C-terminal 12 aa], the protein stability index under setting [1] stood at 0.698 ± 0.024 and the protein stability index (genetic background: wild type) amounted to 0.743 ± 0.022.

On to IEFSMRSLCQGK [CFT1 C-terminal 12 aa], for which the protein stability index under setting [1] was determined as 0.7166 ± 0.0059 and the protein stability index (genetic background: wild type) is 0.685 ± 0.038.

IEHYKSEQEKSL [MUP1 C-terminal 12 aa]: the protein stability index is, setting by setting: under setting [1], 0.6971 ± 0.0015; (genetic background: wild type) 0.67 ± 0.035.

As to IEQETGSEEKQE [SBP1 C-terminal 12 aa], the protein stability index stood at 0.6781 ± 0.0035 under setting [1] and 0.7729 ± 0.0054 (genetic background: wild type).

IFCTLFIHTQIL [PLC1 C-terminal 12 aa] returned a protein stability index under setting [1] of 0.138 ± 0.011 and a protein stability index (genetic background: wild type) of 0.143 ± 0.023.

On to IFHQLQKKINRS [IWR1 C-terminal 12 aa], for which the protein stability index under setting [1] was found to be 0.703 ± 0.0083 and the protein stability index (genetic background: wild type) stood at 0.6656 ± 0.0027.

As to IFIFSWLGYEDS [ATG10 C-terminal 12 aa], the protein stability index is, setting by setting: under setting [1], 0.661 ± 0.043; (genetic background: wild type) 0.664 ± 0.019.

For the sequence IGEWTISYTSLI [IPA1 C-terminal 12 aa], the protein stability index by setting is: under setting [1], 0.66 ± 0.015; (genetic background: wild type) 0.669 ± 0.041.

Regarding IGFKRKRKHAKK [NOP4 C-terminal 12 aa], the protein stability index was 0.703 ± 0.051 under setting [1] and 0.7117 ± 0.0028 (genetic background: wild type).

For the sequence IGFNKLGQMVYI [MRPS35 C-terminal 12 aa], the protein stability index is 0.669 ± 0.018 under setting [1] and 0.666 ± 0.029 (genetic background: wild type).

As for IGGNCATRLFKL [SLM6 C-terminal 12 aa], the protein stability index is 0.7481 ± 0.0008 under setting [1] and 0.737 ± 0.024 (genetic background: wild type).

In the case of IGRRKLVGYKHH [ATP20 C-terminal 12 aa], the protein stability index was found to be 0.702 ± 0.02 under setting [1] and 0.666 ± 0.015 (genetic background: wild type).

Take IGSIKEDYLGAI [RPB7 C-terminal 12 aa]: the protein stability index under setting [1] came out at 0.692 ± 0.021 and the protein stability index (genetic background: wild type) is 0.6737 ± 0.0027.

IHYFKSNLSSPS [RAM1 C-terminal 12 aa]: the protein stability index is, setting by setting: under setting [1], 0.688 ± 0.022; (genetic background: wild type) 0.724 ± 0.028.

For the sequence IIDLNLHSFTKQ [POP6 C-terminal 12 aa], the protein stability index came to 0.722 ± 0.022 under setting [1] and 0.73 ± 0.021 (genetic background: wild type).

Take IKLADAIYKGLE [FOL1 C-terminal 12 aa]: the protein stability index runs as follows: under setting [1], 0.702 ± 0.013; (genetic background: wild type) 0.6648 ± 0.0011.

With IKNTGDLLKLYK [ALK1 C-terminal 12 aa], the protein stability index came to 0.685 ± 0.021 under setting [1] and 0.647 ± 0.0085 (genetic background: wild type).

In the case of ILELVNEDYQSI [MRP17 C-terminal 12 aa], the protein stability index was 0.738 ± 0.048 under setting [1] and 0.71 ± 0.039 (genetic background: wild type).

Turning to ILEYQKRRSFIK [IRC3 C-terminal 12 aa], the protein stability index under setting [1] turned out to be 0.7238 ± 0.0049 and the protein stability index (genetic background: wild type) worked out at 0.652 ± 0.021.

Take ILKPYYIWNNRN [ARR3 C-terminal 12 aa]: the protein stability index reads like this: under setting [1], 0.7161 ± 0.0069; (genetic background: wild type) 0.276 ± 0.0074.

Consider ILRLRLRKATFD [PRM1 C-terminal 12 aa], for which the protein stability index worked out at 0.706 ± 0.023 under setting [1] and 0.708 ± 0.044 (genetic background: wild type).

For ILRQARCDRPHY [YEL068C C-terminal 12 aa], the protein stability index reads like this: under setting [1], 0.691 ± 0.02; (genetic background: wild type) 0.727 ± 0.071.

“ILVLRHFDEIFI [YOR032W-A C-terminal 12 aa]”: the protein stability index runs as follows: under setting [1], 0.63 ± 0.0065; (genetic background: wild type) 0.655 ± 0.044.

Take IMICFLERRKGN [FYV1 C-terminal 12 aa]: the protein stability index is, setting by setting: under setting [1], 0.652 ± 0.018; (genetic background: wild type) 0.638 ± 0.075.

As for “IMTSEIVTNALR [YEL030C-A C-terminal 12 aa]”, the protein stability index is 0.70774 ± 0.00013 under setting [1] and 0.705 ± 0.022 (genetic background: wild type).

As to INDKNTEYTLKE [MRX9 C-terminal 12 aa], the protein stability index was 0.703 ± 0.019 under setting [1] and 0.732 ± 0.017 (genetic background: wild type).

In the case of INEFIEQSCKGE [YMR187C C-terminal 12 aa], the protein stability index stood at 0.687 ± 0.024 under setting [1] and 0.7 ± 0.044 (genetic background: wild type).

Regarding INQEAYQAFLRR [GUF1 C-terminal 12 aa], the protein stability index is, setting by setting: under setting [1], 0.7022 ± 0.0031; (genetic background: wild type) 0.7039 ± 0.0062.

As to IPPLIWLRKKRC [PUL3 C-terminal 12 aa], the protein stability index reads like this: under setting [1], 0.69553 ± 0.00032; (genetic background: wild type) 0.664 ± 0.0097.

On to IQEISAAVKKYT [SAM4 C-terminal 12 aa], for which the protein stability index worked out at 0.704 ± 0.014 under setting [1] and 0.728 ± 0.038 (genetic background: wild type).

Take IQTLRIKQDRYK [MAK10 C-terminal 12 aa]: the protein stability index by setting is: under setting [1], 0.711 ± 0.0083; (genetic background: wild type) 0.665 ± 0.029.

As for ISEIEQLLSKLK [ATP4 C-terminal 12 aa], the protein stability index by setting is: under setting [1], 0.698 ± 0.014; (genetic background: wild type) 0.684 ± 0.045.

The sequence ISNDMQVPPQIS [CKS1 C-terminal 12 aa] had a protein stability index under setting [1] of 0.722 ± 0.0098 and a protein stability index (genetic background: wild type) of 0.688 ± 0.011.

With ISPSKSITMVAE [YDR526C C-terminal 12 aa], the protein stability index by setting is: under setting [1], 0.689 ± 0.011; (genetic background: wild type) 0.6363 ± 0.0024.

The sequence ITNEVNIYSPFF [YOR105W C-terminal 12 aa] came in with a protein stability index under setting [1] of 0.73841 ± 0.00012 and a protein stability index (genetic background: wild type) of 0.7762 ± 0.0059.

Turning to IVFVPSSSYSVN [YJR157W C-terminal 12 aa], the protein stability index runs as follows: under setting [1], 0.711 ± 0.014; (genetic background: wild type) 0.671 ± 0.021.

In the case of IVILIFDRLLSN [YGL081W C-terminal 12 aa], the protein stability index came to 0.394 ± 0.021 under setting [1] and 0.425 ± 0.03 (genetic background: wild type).

With IVIQVNNPLTRA [DOG1 C-terminal 12 aa], the protein stability index by setting is: under setting [1], 0.66 ± 0.011; (genetic background: wild type) 0.7098 ± 0.0059.

Take IVIQVNNPLTRD [DOG2 C-terminal 12 aa]: the protein stability index turned out to be 0.692 ± 0.099 under setting [1] and 0.643 ± 0.0052 (genetic background: wild type).

As to IVQLGMSHGDIS [SMF1 C-terminal 12 aa], the protein stability index reads like this: under setting [1], 0.711 ± 0.028; (genetic background: wild type) 0.699 ± 0.023.

As for “IYAALPKSKIKL [YMR304C-A C-terminal 12 aa]”, the protein stability index by setting is: under setting [1], 0.698 ± 0.012; (genetic background: wild type) 0.737 ± 0.013.

Regarding IYEGFLDHANSF [TFB6 C-terminal 12 aa], the protein stability index was found to be 0.735 ± 0.011 under setting [1] and 0.745 ± 0.012 (genetic background: wild type).

As for KAEYLKNCPITQ [RPC40 C-terminal 12 aa], the protein stability index by setting is: under setting [1], 0.712 ± 0.012; (genetic background: wild type) 0.719 ± 0.028.

Regarding KAIRRCQAIGLM [RSM18 C-terminal 12 aa], the protein stability index reads like this: under setting [1], 0.683 ± 0.014; (genetic background: wild type) 0.672 ± 0.0076.

Consider KALKWEEQELNM [CCM1 C-terminal 12 aa], for which the protein stability index by setting is: under setting [1], 0.711 ± 0.015; (genetic background: wild type) 0.729 ± 0.057.

Turning to KAPKILYKRKGY [HPA2 C-terminal 12 aa], the protein stability index turned out to be 0.685 ± 0.024 under setting [1] and 0.675 ± 0.036 (genetic background: wild type).

As for KATQAIIGYTFK [VMA13 C-terminal 12 aa], the protein stability index is, setting by setting: under setting [1], 0.70395 ± 0.00035; (genetic background: wild type) 0.71 ± 0.023.
